Results on two molecules are retold here after patent US20180051072A1 (RPEPTIDE, published 2018).

Assay [1] deals with T1, Aβ(1-40) (human).
T1 construct: Peptide as coated on ELISA plates; its state of aggregation is not specified; also called Aβ-1-40 peptide; Beta-Amyloid 1-40
Description: ELISA; reacts best with peptide that has not crossed through the isoelectric point. (In an ELISA, binding on a coated surface is turned into a signal by an enzyme label.)

Assay [2] concerns the target T1, Aβ(1-40). Description: ELISA, peptide coated on plate.
The target of assay [3] is T2, Beta-Amyloid 1-42 monomer (human).
T2 construct: also called Beta-Amyloid Monomer; Aβ monomer (1-42)
T2 sequence (peptide, as listed by the source): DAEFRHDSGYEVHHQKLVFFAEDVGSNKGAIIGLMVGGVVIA
Description: western blot, 7E7 as primary antibody (FIG. 20). The procedure:
(§1) Western blots were performed to determine the extent of 7E7 binding to human Beta-Amyloid, specifically to determine if the antibody binds to Aβ aggregates, Aβ monomer, or both. This procedure applies to any Aβ peptide or peptide fragment which is composed of up to and including 40 or 42 amino acids. Before beginning the assay the vials of Aβ to be used were treated with 1,1,1,3,3,3-Hexafluoro-2-propanol (Aldrich Chemistry #105228-100G) (also known as HFIP) at a rate of 150 μL HFIP per 0.5 mg peptide). Once the HFIP was added to the lyophilized pellet the vials were sonicated for exactly one minute, or until the solution was clear. Once the dissolved peptide had taken on a clear appearance, the HFIP was gently evaporated out of each vial by passing Argon gas directly into the vial with the rubber stopper open just enough to allow the gasses and fumes to escape. When the inside of the vials was free of any remaining liquid, the remaining peptide is dissolved with 1% Ammonium Hydroxide at a rate which yields a peptide concentration of 1 mg/mL. 10 μL of this solution was mixed with 90μL of Milli-Q water, and from that 100 μL mixture 20 μL was added to 50 μL XT Sample Buffer (Bio-Rad #161-0791) and 130μL Milli-Q water for a final sample volume of 200 μL. No 2-Mercaptoethanol was added, and the samples were not heated. […] Instead the mixture was gently mixed by using a pipette. […]
A general note: In western blotting, separated proteins are transferred to a membrane and probed.

For assay [4], the target named is T3, Beta-Amyloid 1-40 monomer (human).
T3 construct: also called Beta-Amyloid Monomer; Aβ monomer (1-40)
T3 sequence (peptide, as listed by the source): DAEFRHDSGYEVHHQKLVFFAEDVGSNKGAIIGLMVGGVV
The assay is described as follows: western blot, 7E7 as primary antibody (FIG. 20). The method, then: as §1

The target in assay [5] is T4, Aβ(1-42) (human).
T4 construct: its state of aggregation is not specified; also called Beta-Amyloid 1-42; Aβ42
The assay is described as follows: ELISA, varying peptide amounts, 7E7 at 1:1,000 (FIG. 11).

B1: monoclonal antibody 6C2 (antibody, V domains shown)
VH: EVQLQQSGPELVKPGASVKISCKASGYSFTGYFLSWVKQSHGRSLEWIGRINPYNGHTFYNQKFKDKATLTVDKSSTTAHMELLSLTSEDSAVYYCAGSDSWGQGTTLTVSS
VL: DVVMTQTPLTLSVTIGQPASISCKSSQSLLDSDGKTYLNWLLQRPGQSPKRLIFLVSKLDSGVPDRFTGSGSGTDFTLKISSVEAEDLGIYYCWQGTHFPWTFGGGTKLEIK
notes: Hybridoma monoclonal antibody; also called mAb 6C2; Beta Amyloid 6C2
Turning to B1, the binding result in assay [1] is on record as “binds”.

B2: monoclonal antibody 7E7 (antibody, V domains shown)
VH: EVKLVESGGGLVQPGSSQRLSCATSGFTFTDYYMSWVRQPPGKALEWLGFIRNKTKRYTTEYSASVKGRFTISRDNSQSILYLQMNTLRAEDSATYYCARDDPYARFAYWGQGTLVTVSA
VL: DVVMTQTPLSLPVSLGDQASISCRSGQSLVHRNGNTYLHWYLQKPGQSPKLLIYKVSNRFSGVPDRFSGSGTGTDFTLKISRVEAEDLGVYFCSQSTHVPFTFGSGTKLEIK
notes: Hybridoma monoclonal antibody raised against 1-42 rubredoxin fusion, detected with goat anti-mouse IgG (H+L); also called mAb 7E7; Beta Amyloid 7E7
As for B2, the binding result in assay [2], in assay [3], in assay [4] and in assay [5] was “binds” each time.
